The chains are these.
B1: SDF-1(1-9)2-C9/C9-cysteine dimer (peptide)
peptide: KPVSLSYRC
modifications: also: homodimer via disulphide between Cys9 of the two chains
notes: Homodimer of SDF-1(1-9), with free acid C-termini; also called CTCE9901
B2: SDF-1(1-8)2-lysine bridge dimer (peptide)
peptide: KPVSLSYRK-NH2
modifications: also: dimer: two chains' Arg8 amide-linked to one bridging lysine (alpha and epsilon amino groups)
notes: Two SDF-1(1-8) chains joined through one lysine amide; also called CTCE9904
B3: SDF-1(1-17) (peptide)
peptide: KPVSLSYRCPCRFFESH
notes: Linear peptide, free acid; also called CTCE9902

Bridges are numbered along the chain shown (N, C = ends). Where no end group is shown, it is not given here.

For one test, the target named is T1, CXC chemokine receptor 4 (CXCR4) (UniProt P61073 1-352, limits assumed). Put plainly: cell-based or functional assay.
T1 sequence (P61073 whole entry): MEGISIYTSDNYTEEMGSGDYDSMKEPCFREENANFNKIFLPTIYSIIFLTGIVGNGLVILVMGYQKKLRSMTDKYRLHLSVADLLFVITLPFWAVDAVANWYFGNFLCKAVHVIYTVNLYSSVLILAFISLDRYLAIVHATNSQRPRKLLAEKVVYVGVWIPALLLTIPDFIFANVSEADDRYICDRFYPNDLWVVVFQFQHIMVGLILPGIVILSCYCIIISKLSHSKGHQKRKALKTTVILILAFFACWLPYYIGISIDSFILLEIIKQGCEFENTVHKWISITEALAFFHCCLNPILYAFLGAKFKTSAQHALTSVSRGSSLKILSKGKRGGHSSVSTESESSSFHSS
As to KPVSLSYRCPCRFFGGGGLKWIQEYLEKALN-NH2 (lactam 24-28; cysteine pairing not given here) [SDF-1(1-14)-(G)4-SDF-1(55-67)-E24/K28-cyclic amide], the “EC50 of [Ca2+]i mobilization, fura-2,AM loaded THP-1 cells” value (“EC50 of [Ca2+]i mobilization” for short) was found to be 106 nM.

As to KPVSLSYRCPCRFFGGGGLKWIQEYLEKALN-OH (cysteine pairing not given here) [SDF-1(1-14)-(G)4-SDF-1(55-67) acid], the “EC50 of [Ca2+]i mobilization” value was 188 nM.

KPVSLSYRCPCRFFGGGGLKWIQEYLEKALN-NH2 (lactam 20-24; cysteine pairing not given here) [SDF-1(1-14)-(G)4-SDF-1(55-67)-K20/E24-cyclic amide]: the “EC50 of [Ca2+]i mobilization” value was 148 nM.

A further test has as its target T1, CXC chemokine receptor 4 (CXCR4). Nature of the test: competition against 4 nM 125I-SDF-1 on CEM cells (FIG. 2B). The method, then:
SDF-1 and the indicated analogs (competing ligands, described in Examples) were added at the concentrations illustrated in the presence of 4 nM ¹²⁵I-SDF-1. CEM cells were assessed for ¹²⁵I-SDF-1 binding following 2 hr of incubation. The results are expressed as percentages of the maximal specific binding that was determined without competing ligand, and are the mean of three independent experiments.
A competitive dose response for binding to the SDF-1 receptor by native SDF-1 and the CXCR4 agonists against ¹²⁵I-SDF-1 is shown in FIGS. 2A and 2B respectively. A concentration-dependent inhibition of ¹²⁵I-SDF-1 is illustrated in FIG. 2A, indicating the affinity of SDF-1 for the receptor. […] SDF-1 and the indicated analogs (competing ligands) were added at the concentrations illustrated in the presence of 4 nM ¹²⁵I-SDF-1. CEM cells were assessed for ¹²⁵I-SDF-1 binding following 2 hr of incubation. The results are expressed as percentages of the maximal specific binding that was determined without competing ligand, and are the mean of three independent experiments. The inhibition of ¹²⁵I-SDF-1 by SDF-1 and the SDF-1 analogs is indicative of CXCR4 receptor binding. The compounds illustrated in the figure are as follows: SDF-1(1-14)-(G)₄-SDF-1(55-67)-K20/E24-cyclic amide (CTCE0021), SDF-1(1-14)-(G)₄-SDF-1(55-67)-E24/K28-cyclic amide (CTCE0022), SDF-1(1-9)₂-C9/C9-cysteine dimer (CTCE9901), SDF-1(1-17) (CTCE9902), SDF-1(1-8)₂-lysine bridge dimer (CTCE9904) and SDF-1(1-14)-(G)₄-SDF-1(55-67) amide (CTCE0017).
Regarding B1, the binding result is on record as “binds”.

On to B2, for which the binding result is “binds”.

In the case of B3, the binding result is given as “binds”.
